The source of these data is patent US7138249B2, “Screening method” (Takeda Pharmaceutical Company Limited, priority 2000, dated 2006).

This experiment concerns the target T1, TGR-1-expressing CHO cells (Homo sapiens, UniProt Q9GZQ4, A395T).
T1 construct: expressed in transfected cells; host or cells: CHO cells
The experiment in a line: Site sensor assay of extracellular acidification rate in TGR-1-expressing CHO cells versus mock CHO cells. The format is cell-based. To be noted: exposed to the cells for 7 minutes and 2 seconds; step-wise decreased concentrations; compared with mock CHO cells; 3 cycles before exposure set as 100%. The procedure: In the site sensor assay, pig Neuromedin U-8 at the concentrations indicated in FIG. 1 was reacted to TGR-1-expressing CHO cells (●) and mock CHO cells (◯) for 7 minutes and 2 seconds. The maximum of acidification rate during the reaction was plotted.
[10] TGR-1-expressing cells changes extracellular pH (acidification rate) in response to Neuromedin U. By measuring such change with a site sensor device (Molecular Device), the activity of Neuromedin U can be measured. The details of screening method for the compound that alters the binding between Neuromedin U and TGR-1 by measuring the extracellular pH change with the site sensor device are as follows.
TGR-1-expressing cells are cultivated in a capsule of the site sensor over night. […] After the pH becomes stable, measured is the pH change of the medium caused by refluxing the medium containing Neuromedin U or Neuromedin U and a test compound on the cells. An influence of the compound that alter the binding of Neuromedin U and TGR-1 can be measured by comparing the change of extracellular pH in TGR-1-expressing cells with that by the single administration of Neuromedin U. The compound that inhibits the change of extracellular pH by administrating Neuromedin U can be selected as a candidate substance that is capable of altering the binding property between Neuromedin U and TGR-1. […]

T1 sequence (Q9GZQ4 whole entry A395T): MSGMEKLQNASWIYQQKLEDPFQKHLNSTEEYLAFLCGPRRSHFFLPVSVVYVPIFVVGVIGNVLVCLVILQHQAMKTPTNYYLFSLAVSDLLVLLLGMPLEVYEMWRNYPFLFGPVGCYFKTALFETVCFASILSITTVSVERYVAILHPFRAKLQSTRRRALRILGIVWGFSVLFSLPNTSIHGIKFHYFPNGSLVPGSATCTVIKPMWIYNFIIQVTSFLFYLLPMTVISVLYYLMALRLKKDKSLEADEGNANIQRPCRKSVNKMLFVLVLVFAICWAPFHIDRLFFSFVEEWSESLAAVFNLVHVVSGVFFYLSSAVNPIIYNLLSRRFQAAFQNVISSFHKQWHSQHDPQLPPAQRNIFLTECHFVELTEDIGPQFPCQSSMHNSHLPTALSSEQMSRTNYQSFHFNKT

Consider “Pig Neuromedin U-8: Pig Neuromedin U-8 peptide of 8 amino acid residues (BACHEM, H-5505, SEQ ID NO:5), ligand of TGR-1”, for which the “TGR-1 receptor-specific cell-stimulating activity (peak acidification rate, rate of change in extracellular pH)” value is “reacted to Neuromedin U in a specific and does-dependent manner”.
